Measured values reported in patent US20230391882A1 (NUMAB THERAPEUTICS, published 2023).
Residue numbers refer to the chain shown, from its start.

Experiments:
Assay in all cases: cell-based or functional assay
[1] = molecular target: soluble mesothelin (sMSLN) (UniProt Q13421 296-580, limits assumed)
[2] = molecular target: T1, mesothelin (MSLN) on target cells (H226, MeT-5A) (UniProt Q13421 37-598, limits assumed)
[3] = molecular target: T1, mesothelin (MSLN) on target cells …; remark: listed apart in the source
[4] = molecular target: T1, mesothelin (MSLN) on target cells …; remark: listed apart in the source
[5] = molecular target: T1, mesothelin (MSLN) on target cells …; remark: listed apart in the source
[6] = molecular target: T1, mesothelin (MSLN) on target cells …; remark: listed apart in the source
[7] = molecular target: T1, mesothelin (MSLN) on target cells …; remark: listed apart in the source
[8] = molecular target: T1, mesothelin (MSLN) on target cells …; remark: listed apart in the source
[9] = molecular target: T1, mesothelin (MSLN) on target cells …; remark: listed apart in the source
[10] = molecular target: T1, mesothelin (MSLN) on target cells …; remark: listed apart in the source

B1: PRO2000 (biMSLNlow affinity x CD3 x hSA) (other)
chain 1: DIQMTQSPSSLSASVGDRVTITCQASQNIYSNLAWYQQKPGKAPKLLIYDASDLASGVPSRFSGSGSGTDFTLTISSLQPEDFATYYCQQVRSSSDIDNPFGTGTKVTVLGGGGGSGGGGSGGGGSGGGGSQVQLVESGGGLVQPGGSLRLSCAASGFSLSSYAMGWVRQAPGKGLEWIGYISTINNTYYASWAKGRFTISRDNSKNTVYLQMNSLRAEDTAVYYCAREIRSGWVDYGFSIWGQGTLVTVSSGGGGSGGGGSEVQLVESGGGLVQPGGSLRLSCAASGFSLSSYDMSWVRQAPGKGLAWIGASYASGPTYYASWAKGRFTISRDNSKNTVYLQMNSLRAEDTATYFCARGGWTGTSHSNIWGQGTLVTVSSGGGSGGGSEVQLVESGGGLVQPGGSLRLSCAASGFSFSSSYWICWVRQAPGKCLEWVGCVFTGDGTTYYASWAKGRFTISRDNSKNTVYLQMNSLRAEDTATYFCARPVSVYYYGMDLWGQGTLVTVSS
chain 2: DIQMTQSPSSLSASVGDRVTITCQASQNIYSNLAWYQQKPGKAPKLLIYDASDLASGVPSRFSGSGSGTDFTLTISSLQPEDFATYYCQQVRSSSDIDNPFGTGTKVTVLGGGGGSGGGGSGGGGSGGGGSQVQLVESGGGLVQPGGSLRLSCAASGFSLSSYAMGWVRQAPGKGLEWIGYISTINNTYYASWAKGRFTISRDNSKNTVYLQMNSLRAEDTAVYYCAREIRSGWVDYGFSIWGQGTLVTVSSGGGGSGGGGSDVVMTQSPSSLSASVGDRVTITCQASQIISSRSAWYQQKPGQPPKLLIYQASKLASGVPSRFSGSGSGTDFTLTISSLQPEDFATYYCQCTYIDSNFGAFGCGTKLTVLGGGSGGSDIQMTQSPSSLSASVGDRVTITCQSSQSVFSNNYLAWFQQKPGQSPKRLIYSASTLASGVPSRFSGSGSGTDFTLTISSLQPEDFATYYCLGSYACSSADCYVFGTGTKVTVLG
- decrease of potency of T-cell driven target cell killing in the presence of 500 ng/ml soluble MSLN [1]: 17 fold
- increase of EC50 for killing high MSLN expressing target cells in the presence of 50 ng/ml sMSLN [1]: ≤ 6 fold
- increase of EC50 for killing high MSLN expressing target cells in the presence of 500 ng/ml sMSLN [1]: ≤ 40 fold
- T-cell driven cytotoxicity assay: EC50 for killing high MSLN expressing target cells against EC50 for killing MeT-5A cells [2]: ≥ 25 fold
- specific killing of high MSLN expressing H226 cells by PBMCs in the presence of human serum albumin; killing potency against that of PRO1872 [2]: 75 fold
- EC50 (read off the curve); specific killing of H226 cells, no sMSLN [3]: ~10 pM
- EC50 (read off the curve); specific killing of H226 cells, in presence of 500 ng/ml sMSLN [4]: ~200 pM
- EC50 (read off the curve); activated CD8+ cells (CD69+) with H226 cells, with 50 ng/ml sMSLN [5]: ~8 pM
- EC50 (read off the curve); activated CD8+ cells (CD69+) with H226 cells, without sMSLN [6]: ~2 pM
- EC50 (read off the curve); activated CD8+ cells (CD69+) with H226 cells, with 500 ng/ml sMSLN [7]: ~40 pM
- EC50 (read off the curve); specific killing of MeT-5A cells (low MSLN) [8]: ~100 pM
- EC50 (read off the curve); specific killing of H226 cells, in presence of 50 ng/ml sMSLN [9]: ~30 pM
- EC50 (read off the curve); specific killing of H226 cells (high MSLN) [10]: ~0.07 pM

B2: PRO2100 (biMSLNlow affinity x CD3 x hSA) (other)
chain 1: B1 chain 1 with N186A
chain 2: B1 chain 2 with N186A
- decrease of potency of T-cell driven target cell killing in the presence of 500 ng/ml soluble MSLN [1]: 17 fold

B3: PRO2562 (MATCH4) (other)
chain 1: ALQMTQSPSSLSARVGDRVTIKCQASQSISNYLAWYQQKPGKPPKFLIYDASDLASGVPSRFSGSGSGRDFTLTISSLQPEDFATYYCQQVYDSNNVENVFGCGTKVTVLGGGGGSGGGGSGGGGSGGGGSQSQLVESGGGLVQPGGSLRLSCAVSGFSLSSYAMGWVRQAPGKCLEYIGYISKIGTTYYASWAKGRFTISKDNSKNTVYLQMNSLRAEDTAVYFCARGSSSGGYLDDGFDPWGQGTLVTVSSGGGGSGGGGSEVQLVESGGGLVQPGGSLRLSCAASGFSLSSYDMSWVRQAPGKGLAWIGASYASGPTYYASWAKGRFTISRDNSKNTVYLQMCSLRAEDTATYFCARGGWTGTSHSNIWGQGTLVTVSSGGGSGGGSGGGSGEVQLVESGGGLVQPGGSLRLSCAASGFSLSSYAMNWVRQAPGKCLEWIGHINAGDIAYYATWAKGRFTISRDNSKNTVYLQMNSLRAEDTAVYFCARGAGGFSTGPFKLWGQGTLVTVSS
chain 2: ALQMTQSPSSLSARVGDRVTIKCQASQSISNYLAWYQQKPGKPPKFLIYDASDLASGVPSRFSGSGSGRDFTLTISSLQPEDFATYYCQQVYDSNNVENVFGCGTKVTVLGGGGGSGGGGSGGGGSGGGGSQSQLVESGGGLVQPGGSLRLSCAVSGFSLSSYAMGWVRQAPGKCLEYIGYISKIGTTYYASWAKGRFTISKDNSKNTVYLQMNSLRAEDTAVYFCARGSSSGGYLDDGFDPWGQGTLVTVSSGGGGSGGGGSAFELTQSPSSLSASVGDRVTITCQASESINSRLAWYQQKPGQPPKLLIYDASDLTSGVPSRFSGSGSGTDFTLTISCLQPEDFATYYCQGYGGSSTTTFGCGTKLTVLGGGSGGSGGSGGSGDIQMTQSPSSLSASVGDRVTITCQSSQSVFSNNYLAWFQQKPGQSPKRLIYSASTLASGVPSRFSGSGSGTDFTLTISSLQPEDFATYYCLGSYACSSADCYVFGTGTKVTVLG
- increase of EC50 for killing high MSLN expressing target cells in the presence of 50 ng/ml sMSLN [1]: ≤ 6 fold
- increase of EC50 for killing high MSLN expressing target cells in the presence of 500 ng/ml sMSLN [1]: ≤ 40 fold
- T-cell driven cytotoxicity assay: EC50 for killing high MSLN expressing target cells against EC50 for killing MeT-5A cells [2]: ≥ 25 fold

B4: PRO2566 (MATCH4) (other)
chain 1: AFELTQSPSSLSASVGDRVTITCQASESINSRLAWYQQKPGQPPKLLIYDASDLTSGVPSRFSGSGSGTDFTLTISSLQPEDFATYYCQGYGGSSTTTFGTGTKLTVLGGGGGSGGGGSGGGGSGGGGSEVQLVESGGGLVQPGGSLRLSCAASGFSLSSYAMNWVRQAPGKGLEWIGHINAGDIAYYATWAKGRFTISRDNSKNTVYLQMNSLRAEDTAVYFCARGAGGFSTGPFKLWGQGTLVTVSSGGGGSGGGGSEVQLVESGGGLVQPGGSLRLSCAASGFSLSSYDMSWVRQAPGKGLAWIGASYASGPTYYASWAKGRFTISRDNSKNTVYLQMNSLRAEDTATYFCARGGWTGTSHSNIWGQGTLVTVSSGGGSGGGSGGGSGQSQLVESGGGLVQPGGSLRLSCAVSGFSLSSYAMGWVRQAPGKCLEYIGYISKIGTTYYASWAKGRFTISKDNSKNTVYLQMNSLRAEDTAVYFCARGSSSGGYLDDGFDPWGQGTLVTVSS
chain 2: ALQMTQSPSSLSARVGDRVTIKCQASQSISNYLAWYQQKPGKPPKFLIYDASDLASGVPSRFSGSGSGRDFTLTISSLQPEDFATYYCQQVYDSNNVENVFGCGTKVTVLGGGGGSGGGGSGGGGSGGGGSQSQLVESGGGLVQPGGSLRLSCAVSGFSLSSYAMGWVRQAPGKCLEYIGYISKIGTTYYASWAKGRFTISKDNSKNTVYLQMNSLRAEDTAVYFCARGSSSGGYLDDGFDPWGQGTLVTVSSGGGGSGGGGSALQMTQSPSSLSARVGDRVTIKCQASQSISNYLAWYQQKPGKPPKFLIYDASDLASGVPSRFSGSGSGRDFTLTISSLQPEDFATYYCQQVYDSNNVENVFGCGTKVTVLGGGSGGSGGSGGSGDIQMTQSPSSLSASVGDRVTITCQSSQSVFSNNYLAWFQQKPGQSPKRLIYSASTLASGVPSRFSGSGSGTDFTLTISSLQPEDFATYYCLGSYACSSADCYVFGTGTKVTVLG
- increase of EC50 for killing high MSLN expressing target cells in the presence of 50 ng/ml sMSLN [1]: ≤ 6 fold
- increase of EC50 for killing high MSLN expressing target cells in the presence of 500 ng/ml sMSLN [1]: ≤ 40 fold
- T-cell driven cytotoxicity assay: EC50 for killing high MSLN expressing target cells against EC50 for killing MeT-5A cells [2]: ≥ 25 fold

B5: PRO2567 (MATCH4) (other)
chain 1: B4 chain 1
chain 2: ALQMTQSPSSLSARVGDRVTIKCQASQSISNYLAWYQQKPGKPPKFLIYDASDLASGVPSRFSGSGSGRDFTLTISSLQPEDFATYYCQQVYDSNNVENVFGCGTKVTVLGGGGGSGGGGSGGGGSGGGGSQSQLVESGGGLVQPGGSLRLSCAVSGFSLSSYAMGWVRQAPGKCLEYIGYISKIGTTYYASWAKGRFTISKDNSKNTVYLQMNSLRAEDTAVYFCARGSSSGGYLDDGFDPWGQGTLVTVSSGGGGSGGGGSALQMTQSPSSLSARVGDRVTIKCQASQSISNYLAWYQQKPGKPPKFLIYDASDLASGVPSRFSGSGSGRDFTLTISSLQPEDFATYYCQQVYDSNNVENVFGCGTKVTVLGGGSGGSDIQMTQSPSSLSASVGDRVTITCQSSQSVFSNNYLAWFQQKPGQSPKRLIYSASTLASGVPSRFSGSGSGTDFTLTISSLQPEDFATYYCLGSYACSSADCYVFGTGTKVTVLG
- increase of EC50 for killing high MSLN expressing target cells in the presence of 50 ng/ml sMSLN [1]: ≤ 6 fold
- increase of EC50 for killing high MSLN expressing target cells in the presence of 500 ng/ml sMSLN [1]: ≤ 40 fold
- T-cell driven cytotoxicity assay: EC50 for killing high MSLN expressing target cells against EC50 for killing MeT-5A cells [2]: ≥ 25 fold
